Measurements from patent US20160200782A1.
Each block holds one substance with its values, some of them ahead of it.

How the values were obtained:
Assay in all cases: cell-based or functional assay
[1] = target: ASK1(h) (human) (UniProt Q99683)
[2] = target: MSK1(h) (human) (UniProt O75582)
[3] = target: ZIPK(h) (human) (UniProt O43293)
[4] = target: MEK1(h) (human) (UniProt Q02750)
[5] = target: PKG1β(h) (human) (UniProt Q13976)
[6] = target: Lyn(h) (human) (UniProt P07948)
[7] = target: Ros(h) (human) (UniProt P08922)
[8] = target: PDK1(h) (human) (UniProt O15530)
[9] = target: PDGFRβ(h) (human) (UniProt P09619)
[10] = target: MKK6(h) (human) (UniProt P52564)
[11] = target: TAO3(h) (human) (UniProt Q9H2K8)
[12] = target: mTOR/FKBP12(h) (human) (UniProt P42345)
[13] = target: KDR(h) (human) (UniProt P35968)
[14] = target: Rsk4(h) (human) (UniProt Q9UK32)
[15] = target: Met(D1246N)(h) (human) (UniProt P08581)
[16] = target: EphB2(h) (human) (UniProt P29323)
[17] = target: DDR2(h) (human) (UniProt Q16832)
[18] = target: PDGFRα(D842V)(h) (human) (UniProt P16234)
[19] = target: CDK7/cyclinH/MAT1(h) (human) (UniProt P50613)
[20] = target: Met(D1246H)(h) (human) (UniProt P08581)
[21] = target: CDK9/cyclin T1(h) (human) (UniProt P50750)
[22] = target: Ret(h) (human) (UniProt P07949)
[23] = target: GSK3β(h) (human) (UniProt P49841)
[24] = target: Met(Y1248D)(h) (human) (UniProt P08581)
[25] = target: STK33(h) (human) (UniProt Q9BYT3)
[26] = target: Ret(V804L)(h) (human) (UniProt P07949)
[27] = target: DCAMKL2(h) (human) (UniProt Q8N568)
[28] = target: PAK5(h) (human) (UniProt Q9P286)
[29] = target: Ax1(h) (human) (UniProt P30530)
[30] = target: EphA7(h) (human) (UniProt Q15375)
[31] = target: RIPK2(h) (human) (UniProt O43353)
[32] = target: MSK2(h) (human) (UniProt O75676)
[33] = target: ALK4(h) (human) (UniProt P36896)
[34] = target: CHK2(I157T)(h) (human) (UniProt O96017)
[35] = target: CHK2(R145W)(h) (human) (UniProt O96017)
[36] = target: Mer(h) (human) (UniProt Q12866)
[37] = target: EphB3(h) (human) (UniProt P54753)
[38] = target: EGFR(L861Q)(h) (human) (UniProt P00533)
[39] = target: SAPK4(h) (human) (UniProt O15264)
[40] = target: WNK3(h) (human) (UniProt Q9BYP7)
[41] = target: SGK3(h) (human) (UniProt Q96BR1)
[42] = target: BrSK1(h) (human) (UniProt Q8TDC3)
[43] = target: PKCζ(h) (human) (UniProt Q05513)
[44] = target: CDK2/cyclinA(h) (human) (UniProt P24941)
[45] = target: BrSK2(h) (human) (UniProt Q8IWQ3)
[46] = target: Tec(h)activated (human) (UniProt P42680)
[47] = target: Ret(V804M)(h) (human) (UniProt P07949)
[48] = target: c-RAF(h) (human) (UniProt P04049)
[49] = target: GCK(h) (human) (UniProt Q12851)
[50] = target: Src(1-530)(h) (human) (UniProt P12931)
[51] = target: Ab1(H396P)(h) (human) (UniProt P00519)
[52] = target: Flt3(D835Y)(h) (human) (UniProt P36888)
[53] = target: MuSK(h) (human) (UniProt O15146)
[54] = target: PKCγ(h) (human) (UniProt P05129)
[55] = target: IRAK1(h) (human) (UniProt P51617)

CDK7/cyclinH/MAT1(h) (human), sequence (P50613 whole entry, chain 1 of 3): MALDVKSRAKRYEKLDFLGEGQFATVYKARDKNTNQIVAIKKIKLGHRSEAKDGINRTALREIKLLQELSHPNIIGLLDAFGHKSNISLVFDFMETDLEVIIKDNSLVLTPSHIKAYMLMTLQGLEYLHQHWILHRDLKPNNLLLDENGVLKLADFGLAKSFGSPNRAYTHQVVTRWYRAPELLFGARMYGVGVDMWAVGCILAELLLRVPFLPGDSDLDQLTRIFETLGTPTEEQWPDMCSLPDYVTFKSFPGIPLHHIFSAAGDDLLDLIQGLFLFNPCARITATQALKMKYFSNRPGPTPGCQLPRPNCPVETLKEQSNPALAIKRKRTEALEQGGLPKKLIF
CDK7/cyclinH/MAT1(h) (human), sequence (P51946 whole entry, chain 2 of 3, further chain): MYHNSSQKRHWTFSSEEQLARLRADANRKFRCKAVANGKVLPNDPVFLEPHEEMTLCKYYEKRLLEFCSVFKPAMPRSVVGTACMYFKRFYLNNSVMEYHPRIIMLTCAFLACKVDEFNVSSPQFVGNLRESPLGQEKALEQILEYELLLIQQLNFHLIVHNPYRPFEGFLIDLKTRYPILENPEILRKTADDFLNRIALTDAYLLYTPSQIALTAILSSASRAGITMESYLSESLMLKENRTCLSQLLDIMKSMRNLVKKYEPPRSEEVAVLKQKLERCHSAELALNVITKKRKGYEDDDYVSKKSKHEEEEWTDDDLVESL
CDK7/cyclinH/MAT1(h) (human), sequence (P51948 whole entry, chain 3 of 3, further chain): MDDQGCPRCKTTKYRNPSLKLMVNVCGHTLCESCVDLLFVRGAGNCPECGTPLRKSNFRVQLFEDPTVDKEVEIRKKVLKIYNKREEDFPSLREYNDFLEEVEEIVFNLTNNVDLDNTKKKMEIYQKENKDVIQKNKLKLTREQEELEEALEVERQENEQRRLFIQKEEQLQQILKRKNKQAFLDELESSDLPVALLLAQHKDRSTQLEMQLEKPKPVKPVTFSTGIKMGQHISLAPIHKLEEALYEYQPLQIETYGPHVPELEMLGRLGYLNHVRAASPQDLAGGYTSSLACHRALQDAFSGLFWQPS
PDGFRβ(h) (human), sequence (P09619 557-1106 limits assumed): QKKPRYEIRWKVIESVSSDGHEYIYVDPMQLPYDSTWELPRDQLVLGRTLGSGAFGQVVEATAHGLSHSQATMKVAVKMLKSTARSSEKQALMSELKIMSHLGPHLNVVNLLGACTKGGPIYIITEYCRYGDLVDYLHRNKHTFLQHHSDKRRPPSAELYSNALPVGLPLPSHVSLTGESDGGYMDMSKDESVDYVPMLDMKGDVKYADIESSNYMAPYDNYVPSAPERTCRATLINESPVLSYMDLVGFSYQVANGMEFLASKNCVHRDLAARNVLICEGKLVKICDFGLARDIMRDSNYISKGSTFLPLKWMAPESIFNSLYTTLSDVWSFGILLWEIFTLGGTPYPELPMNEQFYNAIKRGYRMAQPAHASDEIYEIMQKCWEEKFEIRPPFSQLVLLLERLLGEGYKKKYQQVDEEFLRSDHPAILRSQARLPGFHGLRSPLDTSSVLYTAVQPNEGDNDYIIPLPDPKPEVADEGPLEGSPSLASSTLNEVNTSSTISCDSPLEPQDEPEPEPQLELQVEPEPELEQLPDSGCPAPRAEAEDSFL
Ret(h) (human), sequence (P07949 658-1114 limits assumed): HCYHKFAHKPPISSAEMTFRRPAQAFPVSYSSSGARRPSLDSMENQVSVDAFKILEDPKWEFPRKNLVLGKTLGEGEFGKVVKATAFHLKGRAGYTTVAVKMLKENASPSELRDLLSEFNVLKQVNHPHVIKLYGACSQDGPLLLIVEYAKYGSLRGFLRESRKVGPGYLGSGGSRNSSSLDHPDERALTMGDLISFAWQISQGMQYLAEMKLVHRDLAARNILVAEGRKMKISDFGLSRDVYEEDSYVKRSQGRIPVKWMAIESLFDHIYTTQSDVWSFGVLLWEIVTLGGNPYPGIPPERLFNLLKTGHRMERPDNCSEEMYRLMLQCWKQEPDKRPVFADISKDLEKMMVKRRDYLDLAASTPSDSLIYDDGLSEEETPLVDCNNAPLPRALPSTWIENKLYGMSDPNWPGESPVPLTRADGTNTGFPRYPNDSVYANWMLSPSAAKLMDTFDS
MSK1(h) (human), sequence (O75582 whole entry): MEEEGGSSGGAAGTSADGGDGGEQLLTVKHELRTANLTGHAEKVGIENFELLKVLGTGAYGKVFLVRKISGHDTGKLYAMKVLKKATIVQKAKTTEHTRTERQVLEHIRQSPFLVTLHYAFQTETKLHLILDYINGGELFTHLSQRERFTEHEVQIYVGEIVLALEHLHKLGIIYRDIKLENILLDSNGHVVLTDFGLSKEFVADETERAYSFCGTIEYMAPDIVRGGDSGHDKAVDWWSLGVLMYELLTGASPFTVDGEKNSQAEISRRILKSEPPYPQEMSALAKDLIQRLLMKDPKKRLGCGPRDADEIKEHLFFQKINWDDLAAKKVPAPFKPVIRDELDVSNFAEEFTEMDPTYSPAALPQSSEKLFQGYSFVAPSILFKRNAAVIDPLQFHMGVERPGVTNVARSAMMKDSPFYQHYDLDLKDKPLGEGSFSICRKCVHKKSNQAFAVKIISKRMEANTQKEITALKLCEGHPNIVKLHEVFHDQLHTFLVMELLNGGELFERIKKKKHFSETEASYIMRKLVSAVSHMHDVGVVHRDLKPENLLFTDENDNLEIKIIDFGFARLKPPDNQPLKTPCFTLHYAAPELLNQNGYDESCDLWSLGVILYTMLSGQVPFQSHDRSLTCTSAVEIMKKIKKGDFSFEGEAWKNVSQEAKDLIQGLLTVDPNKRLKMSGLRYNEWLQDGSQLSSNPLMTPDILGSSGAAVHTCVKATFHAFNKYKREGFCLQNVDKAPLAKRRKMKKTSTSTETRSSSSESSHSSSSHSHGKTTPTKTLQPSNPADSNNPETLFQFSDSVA
STK33(h) (human), sequence (Q9BYT3 whole entry): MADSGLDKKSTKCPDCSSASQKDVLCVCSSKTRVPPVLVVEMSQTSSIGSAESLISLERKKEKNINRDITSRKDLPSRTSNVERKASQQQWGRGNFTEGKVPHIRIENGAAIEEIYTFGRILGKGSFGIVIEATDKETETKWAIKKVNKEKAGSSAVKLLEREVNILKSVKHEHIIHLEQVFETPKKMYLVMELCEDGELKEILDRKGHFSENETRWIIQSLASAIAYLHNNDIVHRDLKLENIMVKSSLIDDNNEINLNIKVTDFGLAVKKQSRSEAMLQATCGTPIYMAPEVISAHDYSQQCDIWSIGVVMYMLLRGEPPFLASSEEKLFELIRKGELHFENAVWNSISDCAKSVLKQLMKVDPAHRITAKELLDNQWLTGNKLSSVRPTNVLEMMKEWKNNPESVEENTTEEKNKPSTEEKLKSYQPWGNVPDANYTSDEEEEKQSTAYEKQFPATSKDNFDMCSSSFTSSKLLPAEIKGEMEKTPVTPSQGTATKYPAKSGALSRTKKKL
BrSK1(h) (human), sequence (Q8TDC3 whole entry): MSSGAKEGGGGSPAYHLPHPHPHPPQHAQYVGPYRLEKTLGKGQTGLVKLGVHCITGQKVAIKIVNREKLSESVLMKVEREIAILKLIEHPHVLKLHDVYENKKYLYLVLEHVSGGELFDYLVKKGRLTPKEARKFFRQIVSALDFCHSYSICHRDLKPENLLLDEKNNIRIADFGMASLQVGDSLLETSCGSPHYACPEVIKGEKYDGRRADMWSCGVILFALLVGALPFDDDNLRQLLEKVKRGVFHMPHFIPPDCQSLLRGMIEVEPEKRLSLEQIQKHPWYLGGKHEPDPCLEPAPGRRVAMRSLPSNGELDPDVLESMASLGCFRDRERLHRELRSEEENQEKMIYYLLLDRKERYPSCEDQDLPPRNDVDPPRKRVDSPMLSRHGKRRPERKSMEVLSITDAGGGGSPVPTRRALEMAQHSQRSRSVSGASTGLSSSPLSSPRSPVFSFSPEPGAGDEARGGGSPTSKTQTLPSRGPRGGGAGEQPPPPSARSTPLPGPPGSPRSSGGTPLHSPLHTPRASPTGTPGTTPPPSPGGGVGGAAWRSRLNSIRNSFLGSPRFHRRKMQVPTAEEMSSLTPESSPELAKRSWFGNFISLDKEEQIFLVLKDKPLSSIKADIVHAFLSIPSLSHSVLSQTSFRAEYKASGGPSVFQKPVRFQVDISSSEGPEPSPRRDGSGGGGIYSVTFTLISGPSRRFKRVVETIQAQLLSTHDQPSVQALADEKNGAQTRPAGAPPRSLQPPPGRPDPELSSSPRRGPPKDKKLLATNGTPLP
KDR(h) (human), sequence (P35968 790-1356 limits assumed): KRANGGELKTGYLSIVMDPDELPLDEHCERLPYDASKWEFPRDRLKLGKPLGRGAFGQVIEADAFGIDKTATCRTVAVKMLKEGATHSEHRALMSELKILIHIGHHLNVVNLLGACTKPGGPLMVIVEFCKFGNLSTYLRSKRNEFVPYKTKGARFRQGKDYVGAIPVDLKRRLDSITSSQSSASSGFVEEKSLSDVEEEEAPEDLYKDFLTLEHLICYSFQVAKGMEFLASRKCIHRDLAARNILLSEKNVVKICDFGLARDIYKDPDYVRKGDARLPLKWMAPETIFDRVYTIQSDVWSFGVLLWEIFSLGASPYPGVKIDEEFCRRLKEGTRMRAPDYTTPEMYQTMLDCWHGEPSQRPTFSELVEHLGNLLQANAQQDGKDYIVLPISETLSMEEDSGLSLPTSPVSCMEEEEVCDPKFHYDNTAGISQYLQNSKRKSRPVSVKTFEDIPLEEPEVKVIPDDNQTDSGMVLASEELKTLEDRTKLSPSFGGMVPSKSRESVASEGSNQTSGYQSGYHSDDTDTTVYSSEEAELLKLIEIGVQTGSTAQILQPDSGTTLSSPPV
Ret(V804M)(h) (human), sequence (P07949 658-1114 V804M limits assumed): as the sequence (P07949 658-1114 limits assumed) above, with V147M counted along it
Mer(h) (human), sequence (Q12866 578-872 limits assumed): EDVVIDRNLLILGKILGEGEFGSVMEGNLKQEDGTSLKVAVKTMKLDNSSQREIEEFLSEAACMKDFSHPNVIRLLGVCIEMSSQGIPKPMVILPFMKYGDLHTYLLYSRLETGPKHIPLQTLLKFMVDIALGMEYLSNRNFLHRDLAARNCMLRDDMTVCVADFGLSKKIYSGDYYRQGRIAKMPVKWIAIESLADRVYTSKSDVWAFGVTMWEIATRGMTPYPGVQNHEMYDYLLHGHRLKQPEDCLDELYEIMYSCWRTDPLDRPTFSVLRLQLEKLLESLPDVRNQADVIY

Substance: MMI-0100 (peptide)
- % activity [1]: 100%
- % activity [2]: 52%
- % activity [3]: 80%
- % activity [4]: 86%
- % activity [5]: 71%
- % activity [6]: 113%
- % activity [7]: 107%
- % activity [8]: 144%
- % activity [9]: 116%
- % activity [10]: 74%
- % activity [11]: 45%
- % activity [12]: 117%
- % activity [13]: 100%
- % activity [14]: 99%
- % activity [15]: 114%
- % activity [16]: 68%
- % activity [17]: 105%
- % activity [18]: 103%
- % activity [19]: 89%
- % activity [20]: 99%
- % activity [21]: 228%
- % activity [22]: 108%
- % activity [23]: 113%
- % activity [24]: 87%
- % activity [25]: 99%
- % activity [26]: 113%
- % activity [27]: 146%
- % activity [28]: 97%
- % activity [29]: 81%
- % activity [30]: 193%
- % activity [31]: 92%
- % activity [32]: 105%
- % activity [33]: 124%
- % activity [34]: 97%
- % activity [35]: 97%
- % activity [36]: 47%
- % activity [37]: 109%
- % activity [38]: 53%
- % activity [39]: 98%
- % activity [40]: 100%
- % activity [41]: 95%
- % activity [42]: 100%
- % activity [43]: 82%
- % activity [44]: 97%
- % activity [45]: 129%
- % activity [46]: 100%
- % activity [47]: 92%
- % activity [48]: 97%
- % activity [49]: 98%
- % activity [50]: 95%
- % activity [51]: 130%
- % activity [52]: 120%
- % activity [53]: 85%
- % activity [54]: 94%
- % activity [55]: 97%

Substance: MMI-0200 (peptide)
- % activity [1]: 101%
- % activity [2]: 50%
- % activity [3]: 67%
- % activity [4]: 116%
- % activity [5]: 57%
- % activity [6]: 98%
- % activity [7]: 86%
- % activity [8]: 143%
- % activity [9]: 137%
- % activity [10]: 98%
- % activity [11]: 102%
- % activity [12]: 118%
- % activity [13]: 110%
- % activity [14]: 125%
- % activity [15]: 149%
- % activity [16]: 128%
- % activity [17]: 104%
- % activity [18]: 107%
- % activity [19]: 67%
- % activity [20]: 139%
- % activity [21]: 103%
- % activity [22]: 96%
- % activity [23]: 132%
- % activity [24]: 118%
- % activity [25]: 98%
- % activity [26]: 100%
- % activity [27]: 131%
- % activity [28]: 100%
- % activity [29]: 99%
- % activity [30]: 220%
- % activity [31]: 98%
- % activity [32]: 88%
- % activity [33]: 152%
- % activity [34]: 85%
- % activity [35]: 81%
- % activity [36]: 90%
- % activity [37]: 128%
- % activity [38]: 74%
- % activity [39]: 106%
- % activity [40]: 97%
- % activity [41]: 58%
- % activity [42]: 93%
- % activity [43]: 98%
- % activity [44]: 114%
- % activity [45]: 102%
- % activity [46]: 77%
- % activity [47]: 105%
- % activity [48]: 115%
- % activity [49]: 99%
- % activity [50]: 75%
- % activity [51]: 121%
- % activity [52]: 115%
- % activity [53]: 106%
- % activity [54]: 101%
- % activity [55]: 101%

- % activity [1]: -4%
- % activity [2]: 8%
- % activity [3]: 1%
- % activity [4]: 21%
- % activity [5]: 24%
- % activity [6]: 31%
- % activity [7]: 150%
- % activity [8]: 178%
- % activity [9]: 40%
- % activity [10]: 18%
- % activity [11]: 12%
- % activity [12]: 140%
- % activity [13]: 15%
- % activity [14]: 29%
- % activity [15]: 90%
- % activity [16]: 70%
- % activity [17]: 79%
- % activity [18]: 170%
- % activity [19]: 15%
- % activity [20]: 150%
- % activity [21]: 6%
- % activity [22]: 174%
- % activity [23]: 238%
- % activity [24]: 218%
- % activity [25]: 16%
- % activity [26]: 20%
- % activity [27]: 56%
- % activity [28]: 125%
- % activity [29]: 12%
- % activity [30]: 189%
- % activity [31]: 30%
- % activity [32]: 14%
- % activity [33]: 81%
- % activity [34]: 3%
- % activity [35]: 3%
- % activity [36]: 17%
- % activity [37]: 79%
- % activity [38]: 15%
- % activity [39]: 48%
- % activity [40]: 9%
- % activity [41]: -3%
- % activity [42]: 72%
- % activity [43]: 7%
- % activity [44]: 87%
- % activity [45]: 84%
- % activity [46]: 33%
- % activity [47]: 36%
- % activity [48]: 19%
- % activity [49]: 30%
- % activity [50]: 21%
- % activity [51]: 51%
- % activity [52]: 65%
- % activity [53]: 27%
- % activity [54]: 6%
- % activity [55]: 5%
Substance: MMI-0500 (peptide)
